Laboratory results from publication PMC10743992, “A Transient π–π or Cation–π Interaction between Degron and Degrader Dual Residues: A Key Step for the Substrate Recognition and Discrimination in the Processive Degradation of SulA by ClpYQ (HslUV) Protease in Escherichia coli” (International Journal of Molecular Sciences, 2023).
Numbering of substitutions follows the chain as printed. Numbers in names are those of the source. Values belong to the binder of their own block, whether it stands above or below them.

Target: T1, His (6x)-tagged ClpY (Escherichia coli, UniProt P0A6H5 1-443)
T1 construct: ClpY (HslU) ATPase/unfoldase of Escherichia coli, wild type, cloned in pET21a at NdeI-HindIII; Used as the 6-oligomer (1.3 uM) with 5 mM ATP; also called His-ClpY; HslU
T1 sequence (looked up): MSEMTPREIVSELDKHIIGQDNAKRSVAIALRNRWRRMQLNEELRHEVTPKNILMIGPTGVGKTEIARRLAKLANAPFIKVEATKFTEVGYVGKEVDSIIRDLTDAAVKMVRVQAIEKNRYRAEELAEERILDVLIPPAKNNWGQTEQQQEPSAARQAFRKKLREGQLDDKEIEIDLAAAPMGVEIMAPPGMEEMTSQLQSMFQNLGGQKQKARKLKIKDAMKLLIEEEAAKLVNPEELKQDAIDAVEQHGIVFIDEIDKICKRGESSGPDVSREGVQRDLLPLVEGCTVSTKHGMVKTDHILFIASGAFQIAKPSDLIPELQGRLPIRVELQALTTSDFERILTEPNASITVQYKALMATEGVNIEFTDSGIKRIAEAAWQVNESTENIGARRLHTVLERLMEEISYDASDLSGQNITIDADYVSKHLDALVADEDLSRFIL
Experiment: pull-down; His-ClpY (6-oligomer, 1.3 uM) held on cobalt resin; MBP-SulA or variant 7.8 uM; 50 mM HEPES pH 7.4, 150 mM NaCl, 5% glycerol, 5 mM MgCl2, 0.04% Triton X-100, 5 mM ATP, 41 °C 3 h, then resin at 4 °C; 10 washes with 300 mM NaCl; SDS-PAGE, Coomassie
Details: both partners purified

- binding result: binds
B1: MBP-SulA (natural protein, Escherichia coli, UniProt P0AFZ5 1-169, looked up)
chain: MYTSGYAHRSSSFSSAASKIARVSTENTTAGLISEVVYREDQPMMTQLLLLPLLQQLGQQSRWQLWLTPQQKLSREWVQASGLPLTKVMQISQLSPCHTVESMVRALRTGNYSVVIGWLADDLTEEEHAELVDAANEGNAMGFIMRPVSASSHATRQLSGLKIHSNLYH
notes: also called wild-type MBP-SulA; source: E. coli BL21 (DE3), purified (amylose resin)

- binding result: binds
B2: MBP-SulA^F143H (natural protein, Escherichia coli, UniProt P0AFZ5 1-169, looked up)
chain: B1 chain with F143H
notes: SulA of Escherichia coli with F143H, cloned in pMal-c2X at EcoRI-BamHI; source: E. coli BL21 (DE3), purified (amylose resin)

- binding result: binds
B3: MBP-SulA^F143K (natural protein, Escherichia coli, UniProt P0AFZ5 1-169, looked up)
chain: B1 chain with F143K
notes: SulA of Escherichia coli with F143K, cloned in pMal-c2X at EcoRI-BamHI; source: E. coli BL21 (DE3), purified (amylose resin)
